Data from patent CN111690062A (UNIV FUDAN, dated 2020).

Molecular target: T1, Plasmodium falciparum PfRh5 protein (recombinant, expressed in Sf9 insect cells) (Plasmodium falciparum (恶性疟原虫), UniProt Q8IFM5 25-526, limits assumed)
T1 construct: In the BLI assay the protein was amine-coupled to AR2G sensors; also called 恶性疟PfRh5蛋白; PfRh5蛋白
T1 sequence (looked up): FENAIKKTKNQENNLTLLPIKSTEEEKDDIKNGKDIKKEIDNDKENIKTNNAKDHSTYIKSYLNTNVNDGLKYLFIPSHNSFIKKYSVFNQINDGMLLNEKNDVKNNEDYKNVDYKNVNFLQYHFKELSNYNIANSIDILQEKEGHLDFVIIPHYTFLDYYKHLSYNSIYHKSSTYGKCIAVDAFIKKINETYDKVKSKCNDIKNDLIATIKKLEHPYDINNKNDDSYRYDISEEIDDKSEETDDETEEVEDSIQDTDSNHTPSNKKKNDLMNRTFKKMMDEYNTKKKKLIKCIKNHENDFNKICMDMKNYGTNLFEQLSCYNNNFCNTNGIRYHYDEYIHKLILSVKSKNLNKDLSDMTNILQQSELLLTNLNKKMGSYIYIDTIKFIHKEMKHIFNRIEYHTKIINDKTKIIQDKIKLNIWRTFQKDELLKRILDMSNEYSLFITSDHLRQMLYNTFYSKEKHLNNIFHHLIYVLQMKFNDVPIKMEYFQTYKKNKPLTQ
Test: BLI (Octet-Red96) at 37°C; PfRh5 amine-coupled to AR2G sensor; G9 as analyte at 1.2-100 nM in 3-fold dilutions; 1:1 fit

B1: G9 antigen-binding fragment (Fab), fully human, against Plasmodium falciparum PfRh5 (Fab, V domains shown)
VH: EVQLVQSGGGLVQPGGSLRLSCAASGFTFDDYAMHWVRQAPGKGLEWVAVIWYDGSNKYYADSVKGRFTISRDNSKNTLYLQMNSLRAEDTAVYYCAREHIDDPAMVPSPPAFDIWGQGTMVTVSS
VL: EIVLTQSPATLSLSPGERATLSCRASQSVSSYLAWYQQKPGQAPRLLIYDASNRATGIPARFSGSGSGTDFTLTISSLEPEDFATYYCQQSYSTPRTFGQGTKLEIK
notes: also called 抗体G9; 克隆G9
  Kd: 4.9 nM
